T1: human 2Ig-B7H3 overexpressed on CHO-S cells (CHOS-hB7H3-2Ig) (human, UniProt Q5ZPR3 29-534)
T1 construct: also called cells overexpressing human 2Ig-B7H3
T1 sequence: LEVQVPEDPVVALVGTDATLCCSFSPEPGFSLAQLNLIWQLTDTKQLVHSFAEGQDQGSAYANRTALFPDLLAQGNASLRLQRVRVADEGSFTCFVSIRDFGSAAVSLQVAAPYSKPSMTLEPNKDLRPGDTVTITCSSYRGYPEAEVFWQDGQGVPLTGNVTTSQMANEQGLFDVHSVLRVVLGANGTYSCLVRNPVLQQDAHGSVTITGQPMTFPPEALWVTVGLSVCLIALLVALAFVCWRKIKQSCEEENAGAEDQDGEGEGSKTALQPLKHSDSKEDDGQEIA

T2: recombinant human 2Ig-B7H3 protein (human, UniProt Q5ZPR3 29-466)
T2 construct: Bought soluble recombinant protein; also called ACRO Catalog No. B73-H52E2
T2 sequence: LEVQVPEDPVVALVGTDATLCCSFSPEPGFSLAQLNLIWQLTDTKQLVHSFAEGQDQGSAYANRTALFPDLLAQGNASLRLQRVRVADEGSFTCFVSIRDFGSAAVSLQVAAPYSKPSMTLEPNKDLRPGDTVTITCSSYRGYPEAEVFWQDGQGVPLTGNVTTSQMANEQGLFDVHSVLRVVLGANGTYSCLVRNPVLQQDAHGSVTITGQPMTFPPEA

T3: recombinant human 4Ig-B7H3 protein (human, UniProt Q5ZPR3 29-461)
T3 construct: also called human B7H3 protein; SINO BIOLOGICAL Catalog No. 11188-H08H
T3 sequence: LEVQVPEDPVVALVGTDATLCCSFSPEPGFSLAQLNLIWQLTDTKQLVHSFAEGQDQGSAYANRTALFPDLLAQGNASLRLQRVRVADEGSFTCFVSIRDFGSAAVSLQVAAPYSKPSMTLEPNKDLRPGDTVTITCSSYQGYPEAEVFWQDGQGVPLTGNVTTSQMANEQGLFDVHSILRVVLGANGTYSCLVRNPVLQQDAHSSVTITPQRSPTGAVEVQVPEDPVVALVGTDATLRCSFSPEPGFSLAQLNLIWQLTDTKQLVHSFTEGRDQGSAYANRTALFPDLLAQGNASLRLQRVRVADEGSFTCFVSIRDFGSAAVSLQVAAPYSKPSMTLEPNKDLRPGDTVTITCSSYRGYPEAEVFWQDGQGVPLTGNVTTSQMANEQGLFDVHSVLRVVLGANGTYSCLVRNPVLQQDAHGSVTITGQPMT

T4: recombinant cynomolgus monkey B7H3 protein (cynomolgus monkey, UniProt Q7TPB4 26-248 (rat entry))
T4 construct: also called SINO BIOLOGICAL Catalog No. 90806-C02H-50
T4 chain: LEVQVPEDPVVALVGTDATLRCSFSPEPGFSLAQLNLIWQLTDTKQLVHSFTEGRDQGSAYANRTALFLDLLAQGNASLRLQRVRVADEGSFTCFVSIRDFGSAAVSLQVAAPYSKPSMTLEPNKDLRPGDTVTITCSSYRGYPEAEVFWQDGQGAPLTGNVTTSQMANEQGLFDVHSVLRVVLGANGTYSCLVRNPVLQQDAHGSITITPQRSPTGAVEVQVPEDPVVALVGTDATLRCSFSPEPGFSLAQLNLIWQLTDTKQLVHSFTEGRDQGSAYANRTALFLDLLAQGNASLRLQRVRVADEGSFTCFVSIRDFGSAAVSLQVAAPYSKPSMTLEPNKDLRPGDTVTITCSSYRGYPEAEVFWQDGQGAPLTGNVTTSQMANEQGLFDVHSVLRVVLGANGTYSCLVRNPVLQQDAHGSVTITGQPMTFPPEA

T5: human 4Ig-B7H3 overexpressed on CHO-S cells (CHOS-hB7H3-4Ig) (human, UniProt Q5ZPR3 29-534)
T5 construct: The entry includes the signal peptide; also called CHO-hB7H3-4Ig; cells overexpressing human 4Ig-B7H3
T5 sequence: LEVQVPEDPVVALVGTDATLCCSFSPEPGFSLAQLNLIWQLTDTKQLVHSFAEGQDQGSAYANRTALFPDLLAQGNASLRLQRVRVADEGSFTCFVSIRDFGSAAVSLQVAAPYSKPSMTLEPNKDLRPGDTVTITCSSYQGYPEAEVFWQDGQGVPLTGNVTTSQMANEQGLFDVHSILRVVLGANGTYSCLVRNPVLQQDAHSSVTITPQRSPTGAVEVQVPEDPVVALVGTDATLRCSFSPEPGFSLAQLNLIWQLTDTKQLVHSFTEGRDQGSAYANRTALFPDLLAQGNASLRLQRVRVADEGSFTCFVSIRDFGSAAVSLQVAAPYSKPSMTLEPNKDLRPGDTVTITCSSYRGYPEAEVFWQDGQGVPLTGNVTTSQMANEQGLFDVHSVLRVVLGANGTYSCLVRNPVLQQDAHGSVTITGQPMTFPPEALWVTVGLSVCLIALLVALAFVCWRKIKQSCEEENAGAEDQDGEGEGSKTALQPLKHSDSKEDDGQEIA

T6: cynomolgus monkey B7H3 expressed on CHO cells (CHO-cynoB7H3) (cynomolgus monkey, UniProt Q7TPB4 26-316 (rat entry))
T6 chain: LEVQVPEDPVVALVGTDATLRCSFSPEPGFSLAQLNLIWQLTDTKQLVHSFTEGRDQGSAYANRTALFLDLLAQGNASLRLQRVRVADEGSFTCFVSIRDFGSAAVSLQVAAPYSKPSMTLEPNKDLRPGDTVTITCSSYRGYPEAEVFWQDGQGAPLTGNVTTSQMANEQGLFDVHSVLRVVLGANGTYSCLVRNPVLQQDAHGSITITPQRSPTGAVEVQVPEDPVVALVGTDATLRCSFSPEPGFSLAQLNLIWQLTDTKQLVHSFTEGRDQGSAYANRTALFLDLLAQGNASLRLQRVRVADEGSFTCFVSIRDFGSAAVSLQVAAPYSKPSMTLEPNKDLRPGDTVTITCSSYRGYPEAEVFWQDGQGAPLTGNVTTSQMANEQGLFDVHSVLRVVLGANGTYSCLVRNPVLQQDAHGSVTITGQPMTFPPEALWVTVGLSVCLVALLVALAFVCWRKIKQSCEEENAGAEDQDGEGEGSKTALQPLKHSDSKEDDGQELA

B1: Hz19A2 humanized antibody (antibody, human IgG1, kappa, V domains shown)
VH: QVQLVQSGAEVKKPGASVKVSCKASGYIFTSYWIHWVRQAPGQGLEWMGRIYPGTESTFYNEKFKGRVTMTRDTSTSTVYMELSSLRSEDTAVYYCHFITASDWYFDVWGQGTLVTVSS
VL: EIVLTQSPATLSLSPGERATLSCSVSSSVQSNYLYWYQQKPGQAPRLLIYGTSNLASGIPARFSGSGSGTDFTLTISSLEPEDFAVYYCYQWSSYPFTFGQGTKLEIKR
B2: Hz20G5 humanized antibody (antibody, human IgG1, kappa, V domains shown)
VH: QVQLVQSGAEVKKPGASVKVSCKASGYTFTEYIMHWVRQAPGQRLEWMGGINPGTGGTTYNQKFKDRVTITVDTSASTAYMELSSLRSEDTAVYYCTRRTPPWHFAVWGQGTLVTVSS
VL: DIQLTQSPSFLSASVGDRVTITCSASSSVSYIHWYQQKPGKAPKRWIYDTSRLASGVPSRFSGSGSGTEFTLTISSLQPEDFATYYCQQWSSAPLTFGGGTKVEIKR
B3: MGA271 (positive control antibody) (antibody, V domains shown)
VH: EVQLVESGGGLVQPGGSLRLSCAASGFTFSSFGMHWVRQAPGKGLEWVAYISSDSSAIYYADTVKGRFTISRDNAKNSLYLQMNSLRDEDTAVYYCGRGRENIYYGSRLDYWGQGTTVTVSS
VL: DIQLTQSPSFLSASVGDRVTITCKASQNVDTNVAWYQQKPGKAPKALIYSASYRYSGVPSRFSGSGSGTDFTLTISSLQPEDFATYYCQQYNNYPFTFGQGTKLEIK
notes: also called Enoblituzumab
B4: Ch19A2 chimeric antibody (antibody, human IgG1, kappa, V domains shown)
VH: EVQLQQSGAELVRPGASVKLSCKTSGYIFTSYWIHWIKQRSGQGLEWIARIYPGTDSTFYNEKFKGRATLTADKSSSTVYLQLNSLKSEDSAVYFCHFITASDWYFDVWGAGTTVTVSS
VL: DIVLTQSPAIMSASPGEKVTLTCSVSSSVNSNYLYWYQQKPGSSPKLWIYGTSNLASGVPARFSGSGSGPSYSLTISSMEAEDAASYFCYQWSSYPFTFGSGTKLEIKR
B5: Ch20G5 chimeric antibody (antibody, human IgG1, kappa, V domains shown)
VH: EVQLQQSVPELVKPGASVKISCKTSGYTFTEYIMHWVKQSHGKNLEWIGGINPNNGGTTYNQKFKDKATLTVDKSSSTAYMELHNLTSEDSAVYYCTRRTPPWHFAVWGAGTSLTVSS
VL: DIVLTQSPTIMSASPGEKVTMTCSASSSVSYIHWYQQKSGTSPKRWIFDTSRLASGVPARFSGSGSGTSYSLTISSMEAEDAATYYCQQWSSAPLTFGTGTTLELKR
B6: 19A2 (hybridoma clone antibody) (antibody, V domains shown)
VH: B4 VH
VL: DIVLTQSPAIMSASPGEKVTLTCSVSSSVNSNYLYWYQQKPGSSPKLWIYGTSNLASGVPARFSGSGSGPSYSLTISSMEAEDAASYFCYQWSSYPFTFGSGTKLEIK

Experiments:
[1] = target: T1, human 2Ig-B7H3 overexpressed on CHO-S …; assay: FACS (flow cytometry, MFI) on CHO-S cells overexpressing human 2Ig-B7H3, PE-conjugated anti-human Fc detection; panel 'Cell-level affinity of CHOS hB7H3(2Ig)'
Protocol: (§1) 1) CHOS-hB7H3-4Ig, CHOS-hB7H3-2Ig, and CHOS-cyno B7H3 cells were diluted with a PBS solution to 2×10⁶ cells/mL, and added to a U-bottom 96-well plate at 100 μL/well. Three-fold serially diluted antibodies were added.
(§2) 2) The above mixture was incubated on ice for 30 min. The cell suspension was centrifuged at 400 g for 5 min to remove the supernatant, and the cells were washed with a PBS solution to remove the unbound antibodies. 100 μL of the solution of PE-conjugated anti-human Fc antibody (SouthernBiotech) diluted at a ratio of 1:200 was added to each well, and the cells were incubated in the dark on ice for 30 min. Then the cell suspension was centrifuged at 400 g for 5 min to remove the supernatant. The cells were washed with PBS twice to remove the unbound PE-conjugated anti-human Fc antibody. Then the cells were resuspended with 100 μL of PBS, and the binding of the antibody to cells was assayed by FACS.

[2] = target: T2, recombinant human 2Ig-B7H3 protein; assay: bio-layer interferometry (ForteBio), as in Example 3
Protocol: (§3) Briefly, AMQ (Pall, 1506091) (for sample detection) or AHQ (Pall, 1502051) (for positive control detection) sensors were equilibrated offline in an assay buffer for 30 min, and were equilibrated online for 60 s to establish a baseline. The purified antibodies obtained as described above were loaded online onto an AHQ sensor (ForteBio) for the ForteBio affinity assay. The sensor with the loaded antibodies was then exposed to the antigens (including human 4Ig-B7H3, human 2Ig-B7H3 (ACRO, Catalog No. B73-H52E2) and cynomolgus monkey B7H3 (SINO BIOLOGICAL, Catalog No. 90806-C02H-50)) before transferring the sensor to the assay buffer for dissociation rate measurement. The KD values were analyzed using ForteBio analysis software.
(§4) The binding affinity of the humanized antibodies obtained in Example 4 for the antigens (human B7H3 and cynomolgus monkey B7H3) was determined by ForteBio assay as described in Example 3, which was expressed as an equilibrium dissociation constant (KD).

[3] = target: T3, recombinant human 4Ig-B7H3 protein; assay: as above
Protocol: as §3, §4

[4] = target: T4, recombinant cynomolgus monkey B7H3 …; assay: as above
Protocol: as §3, §4

[5] = target: T5, human 4Ig-B7H3 overexpressed on CHO-S …; assay: FACS (flow cytometry, MFI) on CHO-S cells overexpressing human 4Ig-B7H3, PE-conjugated anti-human Fc detection; panel 'Cell-level affinity of CHOS hB7H3(4Ig)'
Protocol: as §1, §2

[6] = target: T2, recombinant human 2Ig-B7H3 protein; assay: bio-layer interferometry (ForteBio), antibody loaded on sensor, antigen in solution
Protocol: (§5) The equilibrium dissociation constant (KD) for binding of the antibodies of the present invention to human B7H3 was determined by bio-layer interferometry (ForteBio). The ForteBio affinity assay was conducted according to the method (Estep, P et al., High throughput solution Based measurement of antibody-antigen affinity and epitope binding. mAbs, 2013.5(2): 270-8) known in the art.
as §3

[7] = target: T3, recombinant human 4Ig-B7H3 protein; assay: as above
Protocol: as §5, §3

[8] = target: T4, recombinant cynomolgus monkey B7H3 …; assay: as above
Protocol: as §5, §3

[9] = target: T6, cynomolgus monkey B7H3 expressed on CHO …; assay: flow cytometry, hybridoma supernatant on CHO-cynoB7H3 cells
[10] = target: T3, recombinant human 4Ig-B7H3 protein; assay: bio-layer interferometry (ForteBio), hybridoma antibody
[11] = target: T4, recombinant cynomolgus monkey B7H3 …; assay: as above

Binder	EC50 [1] [nM]	Kd [2] [nM]	Kd [3] [nM]	Kd [4] [nM]	EC50 [5] [nM]	Kd [6] [nM]	Kd [7] [nM]	Kd [8] [nM]	binding result [9]	Kd [10] [nM]	Kd [11] [nM]
B1	138	10.4	0.601	0.968	8.51	–	–	–	–	–	–
B2	7.54	6.3	0.371	–	6.28	–	–	–	–	–	–
B3	100	782	0.939	1.87	8.54	187	0.636	1.66	–	–	–
B4	–	–	–	–	–	5.74	0.362	0.59	–	–	–
B5	–	–	–	–	–	3.18	0.236	0.713	–	–	–
B6	–	–	–	–	–	–	–	–	binds	0.987	0.977

Reference: patent US20240043540A1 (Innovent, published 2024)
